Laboratory results taken from patent US20160053025A1 (SAMSUNG ELECTRONICS, published 2016).
Substitutions are numbered along the chain they refer to.

Key:
[1] = molecular target: Ang2 RBD A449 mutant (with alanine), FLAG-tagged (human) (UniProt O15123); experiment: ELISA, antibody coated, FLAG-tagged mutant Ang2 RBD detected with anti-FLAG-HRP
[2] = molecular target: T1, Ang2 RBD P419A, FLAG-tagged (human, UniProt O15123 281-496, limits assumed); experiment: as above
T1 chain: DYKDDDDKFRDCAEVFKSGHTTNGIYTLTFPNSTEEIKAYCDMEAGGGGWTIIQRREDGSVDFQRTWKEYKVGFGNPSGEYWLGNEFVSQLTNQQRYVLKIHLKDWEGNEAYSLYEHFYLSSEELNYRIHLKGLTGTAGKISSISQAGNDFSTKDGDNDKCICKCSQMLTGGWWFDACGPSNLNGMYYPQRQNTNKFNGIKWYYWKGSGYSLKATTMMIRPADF
Protocol: (§1) To verify the epitope (or specific binding site) of the anti-Ang2 antibody prepared in Reference Example 2.3, an ELISA was performed using a recombinant protein where a receptor binding domain (RBD) of Ang2 protein in the form of being tagged with Flag was mutated by artificial means.
(§2) Each well of a 96-well MaxiSorp™ flat-bottom plate (Nunc) was coated with 50 ul (microliter) of 1000 nM antibody. Then, the plate was washed five times with 0.05% (v/v) Tween-20-containing PBS (PBST) and blocked with 1% (v/v) BSA-containing PBS at a room temperature for 2 hours. 250 ng of each mutant Ang2 protein obtained by substituting S417, Q418, P419, N421, 1434, D448, A449, P452, Y460, N467, K468, or F469 residue of Ang2 protein tagged with a FLAG sequence ([…], Sigma) at its N-terminal with alanine was added to each well of the plate, which was then allowed to react at a room temperature for 2 hours.
(§3) Finally, 50 ul of TMB substrates (Cell signaling) was added to each well of the plate to induce color development at a room temperature for 3 min. and the reaction was ceased by the addition of 50 ul of Stop solution (Cell signaling) and then, OD450 values were measured on a plate reader (Molecular Devices). By comparing binding affinities with mutated Ang2 to those of unmutated Ang2, each epitope of Ang2 antibodies was identified. The obtained measurement results of the binding affinities (%) with mutant Ang2 against the binding affinity with the native Ang2 are shown in the following Table 13.

[3] = molecular target: T2, Ang2 RBD N467A, FLAG-tagged (human, UniProt O15123 281-496, limits assumed); experiment: as above
T2 chain: T1 chain with A147P, N195A
Protocol: as §1, §2, §3

[4] = molecular target: T3, Ang2 RBD S417A, FLAG-tagged (human, UniProt O15123 281-496, limits assumed); experiment: as above
T3 chain: T1 chain with S145A, A147P
Protocol: as §1, §2, §3

[5] = molecular target: T4, recombinant hAng-2 (C-His, R&D Systems) (human, UniProt O15123 19-496); experiment: SPR, BIAcore T100; hAng2 (C-His) captured by anti-His antibody on CM5, antibody as analyte
T4 construct: Bought protein; also called human Ang-2 protein; C-terminal histidine-tagged human Ang2 (R&D Systems); not shown: C-terminal His tag
T4 sequence: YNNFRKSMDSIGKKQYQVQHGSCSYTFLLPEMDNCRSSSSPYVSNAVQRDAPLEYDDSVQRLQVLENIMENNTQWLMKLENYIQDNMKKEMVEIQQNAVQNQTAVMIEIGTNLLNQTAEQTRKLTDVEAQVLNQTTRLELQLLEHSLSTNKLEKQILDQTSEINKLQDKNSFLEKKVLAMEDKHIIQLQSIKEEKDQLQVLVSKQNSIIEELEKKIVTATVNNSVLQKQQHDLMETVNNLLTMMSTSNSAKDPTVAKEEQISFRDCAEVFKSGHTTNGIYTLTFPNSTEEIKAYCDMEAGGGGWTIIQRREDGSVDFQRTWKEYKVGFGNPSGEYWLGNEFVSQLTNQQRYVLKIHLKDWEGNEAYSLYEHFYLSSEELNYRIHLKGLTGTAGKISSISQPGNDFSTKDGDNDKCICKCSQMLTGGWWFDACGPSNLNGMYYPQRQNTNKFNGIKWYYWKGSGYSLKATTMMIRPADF
Protocol: The binding affinity (KD values) of the antibodies to human Ang2 protein was measured by an SPR method using a BIAcore T100 (GE Healthcare). 25 μg/ml anti-His antibody was immobilized on a CM5 sensor chip (GE healthcare) using a pH 5.0 acetate solution and an amine coupling kit (GE Healthcare). 6 μg/ml of a recombinant hAng2 (C-His, R&D Systems) protein was flowed onto the chip to be captured at 100 to 200 RU levels.

[6] = molecular target: T4, recombinant hAng-2 (C-His, R&D Systems); experiment: SPR, BIAcore T100; hAng-2 (C-His) captured by anti-His antibody on CM5, antibody as analyte
Protocol: First, anti-His antibody was immobilized on a CM5 sensor chip (GE healthcare) up to 8,000 RU levels using a pH 5.0 acetate solution and an amine coupling kit (GE Healthcare). 6 μg/ml of a recombinant hAng-2 (C-His, R&D Systems) protein was flowed onto the chip to be captured at 100 to 200 RU levels.

- binding affinity (%) with mutant Ang2 against the binding affinity with the native Ang2 [1]: 97.9%
- binding affinity (%) with mutant Ang2 against the binding affinity with the native Ang2 [2]: 41.1%
- binding affinity (%) with mutant Ang2 against the binding affinity with the native Ang2 [3]: 107%
- binding affinity (%) with mutant Ang2 against the binding affinity with the native Ang2 [4]: 101%
- Kd [5]: 8 nM
- koff [5]: 0.000193 s⁻¹
- kon [5]: 24100 M⁻¹ s⁻¹
- Kd [6]: 8 nM
B1: SAIT-ANG2-AB-m10D6 (antibody, V domains shown)
VH: DVQLQESGPDLVKPSQSLSLTCTVTGYSITSDYAWNWIRQFPGNKLEWMGYINYSGNTDYNPSLKSRSSITRDTSKNQFFLQLNSVTTGDTATYYCARGNFEGAMDYWGQGTSVTVSS
VL: SIVMTQTPKFLLVSAGDRVTITCKASQSVSNDVAWYQQKPGQSPKLLIYYASNRYPGVPDRFTGSGYGTDFTFTISTVQAEDLAVYFCQQDYSSPWTFGGGTKLEIK
notes: Mouse monoclonal antibody purified from a hybridoma (KCLRF-BP-00295); it is not applied here; also called mouse antibody 10D6; 10D6 antibody
